{"source": "patent US20240425603A1", "about": "(Janssen / Centocor, published 2024)", "binders": {"B1": {"name": "human PlGF (ligand, UniProt P49763-2 19-149, looked up)", "chain": "LPAVPPQQWALSAGNGSSEVEVVPFQEVWGRSYCRALERLVDVVSEYPSEVEHMFSPSCVSLLRCTGCCGDENLHCVPVETANVTMQLLKIRSGDRPSYVELTFSQHVRCECRPLREKMKPERCGDAVPRR", "notes": "ligand on human and cyno VEGFR1; also called placental growth factor"}, "B2": {"name": "Domain 2 of hVEGFR1 alone (receptor)", "chain": "DTGRPFVEMYSEIPEIIHMTEGRELVIPCRVTSPNITVTLKKFPLDTLIPDGKRIIWDSRKGFIISNATYKEIGLLTCEATVNGHLYKTNYLTHRQ", "notes": "also called human VEGFR1 D2"}, "B3": {"name": "VGFB883 (antibody, human IgG1, lambda, L234A L235A, V domains shown)", "VH": "EVQLLESGGGSVQPGGSLRLSCTASGFNFEDYGMNWVRQAPGKGLDWVSSINRQGDISTYHVDSVKGRFTISRDNSKNTLYLQMNSLRAEDTAIYYCTKNHDYHGMDVWGQGTTVTVSS", "VL": "not shown", "notes": "human IgG1 (L234A/L235A/D265S); also called N54Q variant of VGFB54"}, "B4": {"name": "human VEGFA165 (ligand, UniProt P15692-4 27-191, looked up)", "chain": "APMAEGGGQNHHEVVKFMDVYQRSYCHPIETLVDIFQEYPDEIEYIFKPSCVPLMRCGGCCNDEGLECVPTEESNITMQIMRIKPHQGQHIGEMSFLQHNKCECRPKKDRARQENPCGPCSERRKHLFVQDPQTCKCSCKNTDSRCKARQLELNERTCRCDKPRR", "notes": "used unlabeled and biotin labeled; also called human VEGF165 (R&D Systems); hVEGFA165"}, "B5": {"name": "mouse VEGFA164 (ligand, UniProt Q00731-2 27-190, looked up)", "chain": "APTTEGEQKSHEVIKFMDVYQRSYCRPIETLVDIFQEYPDEIEYIFKPSCVPLMRCAGCCNDEALECVPTSESNITMQIMRIKPHQSQHIGEMSFLQHSRCECRPKKDRTKPENHCEPCSERRKHLFVQDPQTCKCSCKNTDSRCKARQLELNERTCRCDKPRR", "notes": "also called VEGFA (mouse VEGFR1 columns)"}}, "key": {"[1]": {"biological_target": "T1, Recombinant human VEGFR1-Fc (R&D Systems) (human, UniProt P17948 27-687, limits assumed)", "T1 construct": "bought; not shown: Fc part of the bought fusion, not described", "T1 sequence (P17948 27-687 limits assumed)": "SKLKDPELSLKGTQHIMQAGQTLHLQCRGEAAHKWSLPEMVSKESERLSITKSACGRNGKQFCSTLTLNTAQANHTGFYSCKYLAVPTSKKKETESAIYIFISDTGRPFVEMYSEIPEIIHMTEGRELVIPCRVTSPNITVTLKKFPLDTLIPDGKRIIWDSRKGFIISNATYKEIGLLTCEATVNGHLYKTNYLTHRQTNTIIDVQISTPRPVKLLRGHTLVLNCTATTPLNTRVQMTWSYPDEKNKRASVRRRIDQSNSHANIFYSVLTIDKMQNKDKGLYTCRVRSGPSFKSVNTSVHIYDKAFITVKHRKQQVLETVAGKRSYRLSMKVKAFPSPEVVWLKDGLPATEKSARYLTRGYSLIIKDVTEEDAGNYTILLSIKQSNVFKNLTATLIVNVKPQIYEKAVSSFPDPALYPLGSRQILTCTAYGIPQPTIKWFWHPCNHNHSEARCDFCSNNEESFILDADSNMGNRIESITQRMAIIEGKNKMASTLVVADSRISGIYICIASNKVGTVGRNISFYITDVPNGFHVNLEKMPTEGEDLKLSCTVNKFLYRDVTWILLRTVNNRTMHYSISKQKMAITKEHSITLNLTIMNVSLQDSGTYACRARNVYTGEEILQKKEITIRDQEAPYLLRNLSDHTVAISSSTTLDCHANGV", "test": "MSD ECL competition on plate-bound human VEGFR1-Fc; competitor biotin PlGF (2 nM)", "outline": "(§1)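 MSD 384 plates were coated with Protein A/G or anti-His mAb, blocked with Blocker A, and used to capture human or mouse VEGFR1-Fc or His-tagged cyno VEGFR1 at 0.5 ug/ml for 1 hour at room temperature. Antibody in half-log dilutions was pre-incubated for 30 minutes, after which biotinylated VEGFA (0.2 nM) or PlGF (2 nM) was added. Bound ligand was detected with Sulfo-tagged streptavidin on an MSD SECTOR S 600 imager, and IC50 and maximal percent inhibition were derived from the electro-chemiluminescence signal.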"}, "His tagged cyno VEGFR1 [2]": {"biological_target": "T2, His tagged cyno VEGFR1 (cynomolgus monkey, UniProt A0A2K5VAF2 27-758)", "test": "MSD ECL competition on plate-bound His-tagged cyno VEGFR1; competitor biotin human PlGF (2 nM)", "outline": "as §1"}, "human VEGFA165 [3]": {"biological_target": "B4", "test": "SPR; against the D1-D3 and D2-D3 constructs"}, "human VEGFA165 [4]": {"biological_target": "B4", "test": "SPR; VEGFR1 D2 alone"}, "[5]": {"biological_target": "cynomolgus monkey VEGFR1 (soluble antigen of the KinExA and SPR affinity assays) (cynomolgus monkey)", "test": "KinExA, solution", "experimental": "(§2) Kinetic exclusion assay (KEA; KinExA) was used to analyze the binding of anti-VEGFR1 antibodies to human, mouse and cynomolgus monkeys VEGFR1. KEA is a fluorescence-based solution method, and it is described in detail in the literature (Darling and Brault, 2004). To measure the affinity of an interaction, a series of solutions with a fixed concentration of one interactant (A) and varying concentrations of another interactant (B) are prepared and allowed to reach equilibrium. After equilibration, the concentration of free A is determined by flowing the equilibrated mixture through a column packed with beads modified with reactant B. Free A binds to the beads and is then detected using a fluorescently labeled polyclonal antibody.\n(§3) Briefly, fixed concentrations (300 pM, 60 pM, 12 pM, 2.4 or 0.5 pM) of Ab were used to prepare a serial dilution of the antigen (2 nM to 0.52 pM, or 800 pM to 5.37 fM). The complex titrations were incubated at RT to reach binding equilibrium for at least 2 days. After incubation, the samples were run on the KinExA3200 or KinExA4000 instrument to assess free antibody in the reaction. During these studies some of the data were rejected because the experiments failed or failed the acceptance criteria. For mouse VEGFR1 the 60 and 300 pM concentrations were rejected due to high titrant related NSB. The dissociation equilibrium constant, (KD), was determined using the n-curve analysis feature of the KinExA Pro software. This program uses nonlinear least-square regression analysis of the globally fitted data to a 1:1 binding model. (CI=confidence interval)."}, "[6]": {"biological_target": "T3, mouse VEGFR1 (soluble antigen of the KinExA and SPR affinity assays) (mouse, UniProt P35969 23-759, limits assumed)", "T3 sequence (looked up)": "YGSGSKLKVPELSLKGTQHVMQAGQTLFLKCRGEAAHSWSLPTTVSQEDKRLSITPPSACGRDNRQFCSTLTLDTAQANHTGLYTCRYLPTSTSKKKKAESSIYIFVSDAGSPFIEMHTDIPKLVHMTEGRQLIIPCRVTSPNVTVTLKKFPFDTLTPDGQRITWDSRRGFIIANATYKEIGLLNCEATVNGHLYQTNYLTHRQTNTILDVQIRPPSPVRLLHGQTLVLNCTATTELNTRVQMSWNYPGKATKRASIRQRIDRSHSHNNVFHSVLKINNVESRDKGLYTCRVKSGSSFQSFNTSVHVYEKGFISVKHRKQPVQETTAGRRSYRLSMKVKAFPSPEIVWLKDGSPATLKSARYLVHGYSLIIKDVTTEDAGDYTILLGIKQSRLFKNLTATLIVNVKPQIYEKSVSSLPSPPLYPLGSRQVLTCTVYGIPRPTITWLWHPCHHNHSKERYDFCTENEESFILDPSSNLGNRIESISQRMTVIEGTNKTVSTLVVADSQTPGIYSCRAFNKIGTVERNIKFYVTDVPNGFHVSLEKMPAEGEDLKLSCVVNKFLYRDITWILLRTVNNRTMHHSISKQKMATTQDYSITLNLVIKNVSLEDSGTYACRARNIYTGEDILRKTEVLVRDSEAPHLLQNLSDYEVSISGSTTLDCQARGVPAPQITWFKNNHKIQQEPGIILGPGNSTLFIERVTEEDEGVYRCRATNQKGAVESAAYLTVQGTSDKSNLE", "test": "KinExA, solution", "experimental": "as §2, §3"}, "[7]": {"biological_target": "human VEGFR1 (soluble antigen of the KinExA and SPR affinity assays) (human, UniProt P17948 27-758, limits assumed)", "sequence (P17948 27-758 limits assumed)": "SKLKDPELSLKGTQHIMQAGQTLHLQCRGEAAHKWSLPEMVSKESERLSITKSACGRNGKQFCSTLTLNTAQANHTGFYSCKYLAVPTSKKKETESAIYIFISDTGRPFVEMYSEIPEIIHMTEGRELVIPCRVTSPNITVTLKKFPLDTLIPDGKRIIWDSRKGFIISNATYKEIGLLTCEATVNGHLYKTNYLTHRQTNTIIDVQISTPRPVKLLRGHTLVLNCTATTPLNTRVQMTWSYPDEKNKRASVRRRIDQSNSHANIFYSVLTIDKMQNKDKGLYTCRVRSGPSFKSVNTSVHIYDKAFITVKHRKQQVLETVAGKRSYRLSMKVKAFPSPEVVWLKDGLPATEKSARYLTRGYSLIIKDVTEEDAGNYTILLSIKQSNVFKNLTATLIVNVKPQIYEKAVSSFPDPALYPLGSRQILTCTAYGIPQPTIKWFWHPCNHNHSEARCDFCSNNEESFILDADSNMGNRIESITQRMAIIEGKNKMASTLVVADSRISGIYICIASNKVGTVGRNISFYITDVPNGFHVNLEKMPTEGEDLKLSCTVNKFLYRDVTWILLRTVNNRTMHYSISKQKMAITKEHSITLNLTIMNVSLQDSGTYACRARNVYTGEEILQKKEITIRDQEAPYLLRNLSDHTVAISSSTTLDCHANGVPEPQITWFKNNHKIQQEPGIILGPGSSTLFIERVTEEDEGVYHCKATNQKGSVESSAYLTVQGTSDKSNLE", "test": "KinExA, solution", "experimental": "as §2, §3"}, "[8]": {"biological_target": "T1, Recombinant human VEGFR1-Fc (R&D …)", "test": "biochemical ligand blocking assay; ligand and receptor form not given", "outline": "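In a biochemical electro-chemiluminescence ligand blocking assay, Protein A/G-coated MSD plates captured recombinant VEGFR1-Fc, which was pre-incubated with half-log dilutions of each antibody for 30 minutes. Biotinylated ligand was added next and detected with Sulfo-tagged streptavidin on an MSD imager. The readings were used to calculate IC50.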"}, "[9]": {"biological_target": "T4, human VEGFR1, full length, over-expressed on cells (human, UniProt P17948 27-1338)", "T4 construct": "on CHO-K1 or HEK cells; also called hVEGFR1; CHOK1/ human VEGFR1", "T4 sequence (P17948 27-1338 limits assumed)": "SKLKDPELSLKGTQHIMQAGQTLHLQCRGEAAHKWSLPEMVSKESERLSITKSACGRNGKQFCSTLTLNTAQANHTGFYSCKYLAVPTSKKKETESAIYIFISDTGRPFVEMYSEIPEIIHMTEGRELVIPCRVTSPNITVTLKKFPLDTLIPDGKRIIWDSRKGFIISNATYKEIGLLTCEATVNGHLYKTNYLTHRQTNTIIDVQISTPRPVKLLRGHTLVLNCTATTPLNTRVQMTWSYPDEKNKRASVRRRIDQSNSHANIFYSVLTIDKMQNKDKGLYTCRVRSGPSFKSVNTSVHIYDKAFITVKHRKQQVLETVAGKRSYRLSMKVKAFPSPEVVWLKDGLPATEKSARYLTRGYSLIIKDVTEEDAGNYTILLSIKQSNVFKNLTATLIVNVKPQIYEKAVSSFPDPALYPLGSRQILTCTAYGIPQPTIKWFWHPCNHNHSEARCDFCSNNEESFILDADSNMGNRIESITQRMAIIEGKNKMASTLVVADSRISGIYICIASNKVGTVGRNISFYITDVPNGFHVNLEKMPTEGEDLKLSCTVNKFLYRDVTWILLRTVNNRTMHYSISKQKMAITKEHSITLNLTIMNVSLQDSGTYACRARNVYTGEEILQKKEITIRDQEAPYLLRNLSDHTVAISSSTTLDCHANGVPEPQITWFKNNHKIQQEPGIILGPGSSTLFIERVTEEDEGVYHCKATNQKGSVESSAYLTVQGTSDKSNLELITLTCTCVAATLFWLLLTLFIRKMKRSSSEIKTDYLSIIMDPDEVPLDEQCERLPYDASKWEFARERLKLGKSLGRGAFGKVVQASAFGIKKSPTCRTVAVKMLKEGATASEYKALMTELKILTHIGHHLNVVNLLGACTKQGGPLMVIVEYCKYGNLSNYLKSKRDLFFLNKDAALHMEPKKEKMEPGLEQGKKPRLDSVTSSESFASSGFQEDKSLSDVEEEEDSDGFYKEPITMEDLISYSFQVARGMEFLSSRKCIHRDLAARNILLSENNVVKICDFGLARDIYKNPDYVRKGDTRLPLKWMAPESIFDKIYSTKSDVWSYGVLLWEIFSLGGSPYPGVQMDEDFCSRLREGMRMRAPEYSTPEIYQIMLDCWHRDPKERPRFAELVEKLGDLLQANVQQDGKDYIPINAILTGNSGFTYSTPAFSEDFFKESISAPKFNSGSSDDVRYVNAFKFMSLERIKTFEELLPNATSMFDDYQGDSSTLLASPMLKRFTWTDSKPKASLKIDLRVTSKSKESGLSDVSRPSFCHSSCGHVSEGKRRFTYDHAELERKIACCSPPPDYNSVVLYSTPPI", "test": "cell binding assay (column head prints IC50)"}, "His tagged cyno VEGFR1 [10]": {"biological_target": "T2, His tagged cyno VEGFR1", "test": "MSD ECL competition on plate-bound His-tagged cyno VEGFR1; competitor biotin human VEGFA165 (0.2 nM)", "outline": "as §1"}, "[11]": {"biological_target": "recombinant human VEGFR1 (D1-D3) (human, UniProt P17948 27-328, limits assumed)", "sequence (P17948 27-328 limits assumed)": "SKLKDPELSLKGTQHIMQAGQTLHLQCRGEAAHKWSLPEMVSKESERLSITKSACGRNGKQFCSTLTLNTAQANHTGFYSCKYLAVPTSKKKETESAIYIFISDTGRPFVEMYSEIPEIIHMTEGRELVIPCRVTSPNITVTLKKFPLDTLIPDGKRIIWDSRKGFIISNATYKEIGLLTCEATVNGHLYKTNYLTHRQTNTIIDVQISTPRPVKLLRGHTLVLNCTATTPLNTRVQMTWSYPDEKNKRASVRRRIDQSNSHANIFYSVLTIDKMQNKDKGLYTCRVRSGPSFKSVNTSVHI", "test": "SPR; VEGFR1 D1-D3"}, "[12]": {"biological_target": "T1, Recombinant human VEGFR1-Fc (R&D …)", "test": "MSD ECL competition on plate-bound human VEGFR1-Fc; competitor biotin human VEGFA165 (0.2 nM)", "outline": "as §1"}, "human VEGFR1 (D2-D3)": {"biological_target": "human VEGFR1 (D2-D3) (human, UniProt P17948 130-331)", "test": "SPR; VEGFR1 D2-D3"}, "[13]": {"biological_target": "T5, Recombinant mouse VEGFR1-Fc (R&D Systems) (mouse, UniProt P35969 27-759, limits assumed)", "T5 construct": "bought; not shown: Fc part of the bought fusion, not described", "T5 sequence (looked up)": "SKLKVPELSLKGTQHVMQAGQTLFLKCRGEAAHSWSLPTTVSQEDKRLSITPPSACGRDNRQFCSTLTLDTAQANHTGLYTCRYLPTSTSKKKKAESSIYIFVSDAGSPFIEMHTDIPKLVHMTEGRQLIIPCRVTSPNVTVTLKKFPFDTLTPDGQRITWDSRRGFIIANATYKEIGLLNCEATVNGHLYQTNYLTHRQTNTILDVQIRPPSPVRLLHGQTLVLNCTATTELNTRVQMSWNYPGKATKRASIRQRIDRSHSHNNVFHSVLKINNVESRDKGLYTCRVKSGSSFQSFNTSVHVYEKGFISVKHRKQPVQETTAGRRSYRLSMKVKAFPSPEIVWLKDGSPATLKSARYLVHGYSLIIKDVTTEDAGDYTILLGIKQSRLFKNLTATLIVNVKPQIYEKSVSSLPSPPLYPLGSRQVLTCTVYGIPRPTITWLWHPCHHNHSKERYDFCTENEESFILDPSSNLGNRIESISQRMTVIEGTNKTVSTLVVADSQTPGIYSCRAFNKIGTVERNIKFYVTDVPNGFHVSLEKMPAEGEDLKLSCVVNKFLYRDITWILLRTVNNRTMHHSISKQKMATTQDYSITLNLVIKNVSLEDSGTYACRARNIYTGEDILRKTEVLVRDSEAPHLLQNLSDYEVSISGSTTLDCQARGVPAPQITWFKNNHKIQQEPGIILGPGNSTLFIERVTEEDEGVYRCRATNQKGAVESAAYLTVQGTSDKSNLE", "test": "MSD ECL competition on plate-bound mouse VEGFR1-Fc; competitor biotin mouse VEGFA164 (0.2 nM)", "outline": "as §1"}}}
{"binder": "B1", "values": [{"measurement": "IC50", "setting": "[1]", "result": 8.92, "unit": "nM"}, {"measurement": "Max % Inh.", "setting": "[1]", "result": 98.6, "unit": "%"}, {"measurement": "IC50", "setting": "His tagged cyno VEGFR1 [2]", "result": 13.3, "unit": "nM"}, {"measurement": "Max % Inh.", "setting": "His tagged cyno VEGFR1 [2]", "result": 99.2, "unit": "%"}]}
{"binder": "B2", "values": [{"measurement": "fold reduction in affinity", "setting": "human VEGFA165 [3]", "result": "~1000", "unit": "fold"}, {"measurement": "Kd", "setting": "human VEGFA165 [4]", "result": 22, "unit": "nM"}]}
{"binder": "B3", "values": [{"measurement": "Kd", "setting": "[5]", "result": "~0.0005", "unit": "nM"}, {"measurement": "Kd", "setting": "[6]", "result": "> 2", "unit": "nM"}, {"measurement": "Kd", "setting": "[7]", "result": "~0.0002", "unit": "nM"}, {"measurement": "IC50", "setting": "[8]", "result": 0.044, "unit": "nM"}, {"measurement": "IC50", "setting": "[9]", "result": 0.0655, "unit": "nM"}]}
{"binder": "B4", "values": [{"measurement": "IC50", "setting": "His tagged cyno VEGFR1 [10]", "result": 0.261, "unit": "nM"}, {"measurement": "Max % Inh.", "setting": "His tagged cyno VEGFR1 [10]", "result": 100, "unit": "%"}, {"measurement": "Kd", "setting": "[11]", "result": "< 0.045", "unit": "nM"}, {"measurement": "IC50", "setting": "[12]", "result": 0.156, "unit": "nM"}, {"measurement": "Max % Inh.", "setting": "[12]", "result": 100, "unit": "%"}, {"measurement": "Kd", "setting": "human VEGFR1 (D2-D3)", "result": "< 0.03", "unit": "nM"}]}
{"binder": "B5", "values": [{"measurement": "IC50", "setting": "[13]", "result": 0.15, "unit": "nM"}, {"measurement": "Max % Inh.", "setting": "[13]", "result": 99.9, "unit": "%"}]}
